According to patent US20060177862A1 (CAMBRIDGE ANTIBODY TECHNOLOGY, published 2006):

Target: T1, TGFβ-1 (UniProt P01137 279-390)
T1 construct: Antigen coated on ELISA plates at 1 µg/ml
Assay: method not stated; value listed for the panel of existing phage-display scFv

T1 sequence (P01137 279-390 limits assumed): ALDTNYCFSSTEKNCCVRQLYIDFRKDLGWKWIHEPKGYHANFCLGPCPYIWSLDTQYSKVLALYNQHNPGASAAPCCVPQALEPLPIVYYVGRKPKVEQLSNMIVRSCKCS

B1: ScFv 1 (scFv, V domains shown)
VH: EVQLVESGGGLVQPGGSLRLSCAASGYAFTNYLIEWVRQAPGKGLEWVGVINPGSGGSNYNEKFKGRATISADNSKNTLYLQMNSLRAEDTAVYYCARSGGFYFDYWGQGTLVTVSS
VL: DIQMTQSPSSLSASVGDRVTITCRASQSVLYSSNQKNYLAWYQQKPGKAPKLLIYWASTRESGVPSRFSGSGSGTDFTLTISSLQPEDFATYYCHQYLSSDTFGQGTKVEIK
  Kd: 8 nM
